# Results taken from patent publication US20250027068A1 (published 2025).
# Molecular target: pooled human IgG (human IgG1, 2, 3 and 4) (human)
# Assay: cell-based or functional assay
# Note: test concentration or dose not given here.
binder,measurement,value
PRT-402 (enzyme) MVTSVWTKGVTPPADFTQGEDVFHAPYVANQGWYDITKTFNGKDDLLCGAATAGNMLHWWFDQNKEYIEAYLKKHPEKQKIMFGDQELLDVRKAINTKGSQKNSELFNYFRDKAFPNLSARRLGVMPDLVLDMFINGYYLNVTKTQTTDVNRTYQEKDKRGGIFDAVFTRGDQSKLLTSRHDFKEKGLKEISDLIKQELTEGKALGLSHTYANVRLNHVINLWGADFDSDGNLKAIYVTDSDSNASIGMKKYFVGVNSAGKVAISAKEIKEDNIGAQVLGLFTLSTGQDIWNQTN,Enzyme Activity Endpoint Assay: Fab′2,530 ng/µL
same,Enzyme Activity Endpoint Assay: Fc,342 ng/µL
same,Enzyme Activity Endpoint Assay: IgG,0 ng/µL
same,Enzyme Activity Endpoint Assay: scIgG,188 ng/µL
PRT-410 (enzyme) MVTSVWTKGVTPPADFTQGEDVFHAPYVANQGWYDITKTFNGKDDLLCGAATAGNMLHWWFDQNKEYIEAYLKKHPEKQKIMFGDQELLDVRKAINTKGSQKNSELFNYFRDKAFPNLSARRLGVMPDLVLDMFINGYYLNVTKTQTTDVNRTYQEKDKRGGIFDAVFTRGDQSKLLTSRHDFKEKGLKEISDLIKQELTEGKALGLSHTYANVRINHVINLWGADFDSDGNLKAIYVTDSDTNASIGMKKYFVGVNSAGKVAISAKEIKEDNIGAQVLGLFTLSTGQDIWNQTN,Enzyme Activity Endpoint Assay: Fab′2,567 ng/µL
same,Enzyme Activity Endpoint Assay: Fc,297 ng/µL
same,Enzyme Activity Endpoint Assay: IgG,206 ng/µL
same,Enzyme Activity Endpoint Assay: scIgG,0 ng/µL
PRT-403 (enzyme) MVTSVWTKGVTPPADFTQGEDVFHAPYVANQGWYDITKTFNGKDDLLCGAATAGNMLHWWFDQNKEYIEAYLKKHPEKQKIMFGDQELLDVRKAINTKGSQKNSELFNYFRDKAFPNLSARRLGVMPDLVLDMFINGYYLNVTKTQTTDVNRTYQEKDKRGGIFDAVFTRGDQSKLLTSRHDFKEKGLKEISDLIKQELTEGKALGLSHTYANVRISHVINLWGADFDSDGNLKAIYVTDSDSNASIGMKKYFVGVNSAGKVAISAKEIKEDNIGAQVLGLFTLSTGQDIWNQTN,Enzyme Activity Endpoint Assay: Fab′2,569 ng/µL
same,Enzyme Activity Endpoint Assay: Fc,332 ng/µL
same,Enzyme Activity Endpoint Assay: IgG,166 ng/µL
same,Enzyme Activity Endpoint Assay: scIgG,40 ng/µL
PRT-395 (enzyme) MVTSVWTKGVTPPADFTQGEDVFHAPYVANQGWYDITKTFNGKDDLLCGAATAGNMLHWWFDQNKEYIEAYLKKHPEKQKIMFGDQELLDVRKAINTKGSQKNSELFNYFRDKAFPTLSARRLGVMPDLVLDMFINGYYLNVTKTQTTDVNRTYQEKDKRGGIFDAVFTRGDQSKLLTSRHDFKEKGLKEISDLIKQELTEGKALGLSHTYANVRINHVINLWGADFDSDGNLKAIYVTDSDSNASIGMKKYFVGVNSAGKVAISAKEIKEDNIGAQVLGLFTLSTGQDIWNQTN,Enzyme Activity Endpoint Assay: Fab′2,544 ng/µL
same,Enzyme Activity Endpoint Assay: Fc,358 ng/µL
same,Enzyme Activity Endpoint Assay: IgG,0 ng/µL
same,Enzyme Activity Endpoint Assay: scIgG,204 ng/µL
PRT-411 (enzyme) MVTSVWTKGVTPPADFTQGEDVFHAPYVANQGWYDITKTFNGKDDLLCGAATAGNMLHWWFDQNKEYIEAYLKKHPEKQKIMFGDQELLDVRKAINTKGSQKNSELFNYFRDKAFPNLSARRLGVMPDLVLDMFINGYYLNVTKTQTTDVNRTYQEKDKRGGIFDAVFTRGDQSKLLTSRHDFKEKGLKEISDLIKQELTEGKALGLSHTYANVRINHVINLWGADFDSDGNLKAIYVTDSDSRASIGMKKYFVGVNSAGKVAISAKEIKEDNIGAQVLGLFTLSTGQDIWNQTN,Enzyme Activity Endpoint Assay: Fab′2,519 ng/µL
same,Enzyme Activity Endpoint Assay: Fc,341 ng/µL
same,Enzyme Activity Endpoint Assay: IgG,90 ng/µL
same,Enzyme Activity Endpoint Assay: scIgG,155 ng/µL
PRT-379 (enzyme) MVTSVWTKGVTPPTNFTYGEDVLHAPYVANQGWYDITKTFNGKDDLLCGAATAGNMLHWWFDQNKEQIENYLKKHPEKQKINFNGEQMFDVKEAIDTKDSQLDSKLFEYFKEKAFPYLSTKHLGVFPDHVIDMFINGYRLSLLNHGPTPVKRGSKDPRGGIFDAVFTRGDQSKLLTNRHDFKEKTLKEISDLIKQELTEGKALGISHTYANVRINHVINLWGADFDAEGNLEAIYVTDSDSNASIGMKKYFVGVNSNGKVAISAKEIEEDNIGAQVLGLFTLSTGQDIWNQTN,Enzyme Activity Endpoint Assay: Fab′2,599 ng/µL
same,Enzyme Activity Endpoint Assay: Fc,370 ng/µL
same,Enzyme Activity Endpoint Assay: IgG,0 ng/µL
same,Enzyme Activity Endpoint Assay: scIgG,226 ng/µL
PRT-388 (enzyme) MVTSVWTKGVTPPTNFTYGEDVLHAPYVANQGWYDITKTFNGKDTLLCGAATAGNMLHWWFDQNKEQIENYLKKHPEKQKINFNGEQMFDVKEAIDTKDSQLDSKLFEYFKEKAFPYLSTKHLGVFPDHVIDMFINGYRLSLTNHGPTPVKRGSKDPRGGIFDAVFTRGDQSKLLTNRHDFKEKTLKEISDLIKQELTEGKALGISHTYANVRINHVINLWGADFDAEGNLEAIYVTDSDSNASIGMKKYFVGVNSNGKVAISAKEIEEDNIGAQVLGLFTLSTGQDIWNQTN,Enzyme Activity Endpoint Assay: Fab′2,481 ng/µL
same,Enzyme Activity Endpoint Assay: Fc,338 ng/µL
same,Enzyme Activity Endpoint Assay: IgG,34 ng/µL
same,Enzyme Activity Endpoint Assay: scIgG,222 ng/µL
PRT-380 (enzyme) MVTSVWTKGVTPPTNFTYGEDVLHAPYVANQGWYDITKTFNGKDDLLCGAATAGNMLHWWFDQNKEQIENYLKKHPEKQKINFNGEQMFDVKEAIDTKDSQLDSKLFEYFKEKAFPYLSTKHLGVFPDHVIDMFINGYRLSLTNHGPTPVKRGSKDPRGGIFDAVFTRGDQSKLLTNRHDFKEKTLKEISDLIKQELTEGKALGISHTYANARINHVINLWGADFDAEGNLEAIYVTDSDSNASIGMKKYFVGVNSNGKVAISAKEIEEDNIGAQVLGLFTLSTGQDIWNQTN,Enzyme Activity Endpoint Assay: Fab′2,66 ng/µL
same,Enzyme Activity Endpoint Assay: Fc,258 ng/µL
same,Enzyme Activity Endpoint Assay: IgG,219 ng/µL
same,Enzyme Activity Endpoint Assay: scIgG,702 ng/µL
PRT-387 (enzyme) MVTSVWTKGVTPPTNFTYGEDVLHAPYVANQGWYDITKTFNGKDDLLCGAATAGNMLHWWFDQNKEQIENYLKKHPEKQKINFNGEQMFDVKEAIDTKDSQLDSKLFEYFKEKAFPYLSTKHLGVFPDHVIDMFINGYRLSLTNHGPTPVKRGSKDPRGGIFDAVFTRGDQSKLLTNRHDFKEKTLKEISDLIKQELTEGKALGISHTYANVRINHVINLWGADFDAEGNLEAIYVTDSDSNASIGMKKYFVGVNSSGKVAISAKEIEEDNIGAQVLGLFTLSTGQDIWNQTN,Enzyme Activity Endpoint Assay: Fab′2,605 ng/µL
same,Enzyme Activity Endpoint Assay: Fc,366 ng/µL
same,Enzyme Activity Endpoint Assay: IgG,0 ng/µL
same,Enzyme Activity Endpoint Assay: scIgG,242 ng/µL
PRT-418 (enzyme) MTITSVWTKGVTPPTPEDFRYNNEDVLHAPYVANQGWYDITKTFDGKDNLLCGAATAGNMLHWWFDQNKEEIERYLKKHPEKQKIIFNNQELFDVKAAIDTKDSQTNSKLFNYFRDKAFPNLSARQLGVMPDLVLDMFINGYYLNLGKTQSTDVNRPYQDKDKRGGIFDAVFTRGDQTTLLTARHDLKNKGLNEISDLIKQELTEGKALALSHTYANVRINHVINLWGADFDAEGNLIAIYVTDSDANASIGMKKYAVGVNANGKVAISAKKIEGDNIGAQVLGLFTLSTGQDIWQKLS,Enzyme Activity Endpoint Assay: Fab′2,382 ng/µL
same,Enzyme Activity Endpoint Assay: Fc,283 ng/µL
same,Enzyme Activity Endpoint Assay: IgG,288 ng/µL
same,Enzyme Activity Endpoint Assay: scIgG,149 ng/µL
PRT-426 (enzyme) MTITSVWTKGVTPPTPEDFRYNNEDVLHAPYVANQGWYDITKTFDGKDNLLCGAATAGNMLHWWFDQNKEEIERYLKKHPEKQKIIFNNQELFDVKAAIDTKDSQTNSKLFNYFRDKAFPNLSARQLGVFPDLVLDMFINGYYLNLGKTQSTDVNRPYQDKDKRGGIFDAVFTRGDQTTLLTARHDLKNKGLNEISDLIKQELTEGKALALSHTYANVRINHVINLWGADFDAEGNLIAIYVTDSDANASIGMKKYFVGVNANGKVAISAKKIEGDNIGAQVLGLFTLSTGQDIWQKLS,Enzyme Activity Endpoint Assay: Fab′2,508 ng/µL
same,Enzyme Activity Endpoint Assay: Fc,283 ng/µL
same,Enzyme Activity Endpoint Assay: IgG,243 ng/µL
same,Enzyme Activity Endpoint Assay: scIgG,0 ng/µL
PRT-419 (enzyme) MTITSVWTKGVTPPTPEDFRYNNEDVLHAPYVANQGWYDITKTFDGKDNLLCGAATAGNMLHWWFDQNKEEIERYLKKHPEKQKIIFNNQELFDVKAAIDTKDSQTNSKLFNYFRDKAFPNLSARQLGVMPDLVLDMFINGYYLNLGKTQSTDVNRPYQDKDKRGGIFDAVFTRGDQTTLLTARHDLKNKGLNEISDLIKQELTEGKALALSHTYANVRINHVINLWGADFDAEGNLIAIYVTDSDANASIGMKKYFVGVNANGKVAISAKKIEGDNIGAQVLGLFTLSTGQDQWQKLS,Enzyme Activity Endpoint Assay: Fab′2,528 ng/µL
same,Enzyme Activity Endpoint Assay: Fc,298 ng/µL
same,Enzyme Activity Endpoint Assay: IgG,183 ng/µL
same,Enzyme Activity Endpoint Assay: scIgG,0 ng/µL
PRT-427 (enzyme) MTITSVWTKGVTPPTPEDFRYNNEDVLHAPYVANQGWYDITKTFDGKDNLLCGAATAGNMLHWWFDQNKEEIERYLKKHPEKQKIIFNNQELFDVKAAIDTKDSQTNSKLFNYFRDKAFPNLSARQLGVMPDLVLDMFINGYYLNLGKTQSTDVNRPYQDKDKRGGIFDAVFTRGVQTTLLTARHDLKNKGLNEISDLIKQELTEGKALALSHTYANVRINHVINLWGADFDAEGNLIAIYVTDSDANASIGMKKYFVGVNANGKVAISAKKIEGDNIGAQVLGLFTLSTGQDIWQKLS,Enzyme Activity Endpoint Assay: Fab′2,537 ng/µL
same,Enzyme Activity Endpoint Assay: Fc,352 ng/µL
same,Enzyme Activity Endpoint Assay: IgG,135 ng/µL
same,Enzyme Activity Endpoint Assay: scIgG,139 ng/µL
PRT-444 (enzyme) MSQTEDSESLQRLRDIEDFQAEKKKQNVVYTKWLDGVDVKDHDFRKIVDGNIAYYATPLLNGRGFYDINKDFNRDSDKCAAAVAANMFHYWLDRNRDNVDRFLRQNPEKHGIIELPDGQLKLSDFLNTYESDDGYRDKSKLFDFISNNFNKPVWTDKLLDNYINGYAYNYKYGRTIEDPTKNTSKINFFKEVFNEKILTNNHSIRNQNEFSVLLSEALYTGKAIGLSYGPAGLRHSLGHIISVWGADLDADGNVVAIYVTDSDDKKLTIGDERVGLKRYKISTDDEGRLRLTAYEETHNTGGQIRGLWTLDTGKQAWADYFDKTEQTGTDQAEQ,Enzyme Activity Endpoint Assay: Fab′2,494 ng/µL
same,Enzyme Activity Endpoint Assay: Fc,321 ng/µL
same,Enzyme Activity Endpoint Assay: IgG,0 ng/µL
same,Enzyme Activity Endpoint Assay: scIgG,286 ng/µL
